Literature values, collected in article PMC3777542.

Columns and labels:
[1] = target: CD4 cytoplasmic tail (Homo sapiens) (UniProt P01730)
[2] = target: Hck SH3 (Homo sapiens) (UniProt P08631)
[3] = target: Hck (Homo sapiens) (UniProt P08631)
[4] = target: AP-2 hemicomplex (Homo sapiens) (UniProt O95782); assay: SPR
Sequence of UniProt O95782 (O95782 whole entry, chain 1 of 2): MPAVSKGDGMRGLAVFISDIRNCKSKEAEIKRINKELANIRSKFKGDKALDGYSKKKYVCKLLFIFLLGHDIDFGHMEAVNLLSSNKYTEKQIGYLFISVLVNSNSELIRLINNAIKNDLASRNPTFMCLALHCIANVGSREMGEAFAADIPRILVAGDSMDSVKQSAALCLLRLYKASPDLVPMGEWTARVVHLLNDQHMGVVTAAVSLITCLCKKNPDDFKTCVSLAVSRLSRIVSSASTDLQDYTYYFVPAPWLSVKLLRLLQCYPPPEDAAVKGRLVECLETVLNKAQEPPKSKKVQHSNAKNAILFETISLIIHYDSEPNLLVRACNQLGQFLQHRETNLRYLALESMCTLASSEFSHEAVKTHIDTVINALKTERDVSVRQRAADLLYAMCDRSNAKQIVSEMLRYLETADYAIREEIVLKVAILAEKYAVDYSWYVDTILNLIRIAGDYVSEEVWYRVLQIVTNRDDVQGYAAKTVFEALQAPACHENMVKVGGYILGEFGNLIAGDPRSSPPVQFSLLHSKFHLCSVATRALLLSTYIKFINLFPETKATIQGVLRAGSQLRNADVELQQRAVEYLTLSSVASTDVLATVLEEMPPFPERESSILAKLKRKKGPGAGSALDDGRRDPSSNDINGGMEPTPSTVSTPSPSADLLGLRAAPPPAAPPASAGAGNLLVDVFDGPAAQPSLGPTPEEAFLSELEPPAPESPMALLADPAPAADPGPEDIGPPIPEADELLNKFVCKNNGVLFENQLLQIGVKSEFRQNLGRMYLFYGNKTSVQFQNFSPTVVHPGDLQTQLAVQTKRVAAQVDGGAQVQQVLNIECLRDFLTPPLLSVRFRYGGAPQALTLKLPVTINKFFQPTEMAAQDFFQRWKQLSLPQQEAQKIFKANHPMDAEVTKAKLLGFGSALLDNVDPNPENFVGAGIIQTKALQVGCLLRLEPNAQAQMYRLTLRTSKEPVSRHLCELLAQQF
Sequence of UniProt O95782 (B2R4Z4 whole entry, chain 2 of 2, further chain): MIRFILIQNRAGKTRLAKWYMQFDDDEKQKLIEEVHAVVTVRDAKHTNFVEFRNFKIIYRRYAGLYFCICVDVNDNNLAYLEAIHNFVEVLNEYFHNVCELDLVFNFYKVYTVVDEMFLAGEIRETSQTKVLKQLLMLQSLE

## Nef (from UniProt P04324)
[1]
  Kd: 1000 nM
[2]
  Kd: 260 nM
[3]
  Kd: 200 nM
[4]
  Kd: 6000 nM
